Source: the MegaScale stability set (Tsuboyama et al. 2023)

B1: 1ZHC (parent)
chain: HEFRDEISVLKANNPHFDKIFEKHNQLDDDIKTAEQQNASDAEVSHMKKQKLKLKDEIHSMIIEYREK

Variants of: B1
Assay: folding stability dG (cDNA display proteolysis); higher = more stable
Settings: PBS, room temperature
For H46V, the “folding stability dG” value was 0.657 kcal/mol.
With H46D the “folding stability dG” value was 0.734 kcal/mol.
In the case of H46N, the “folding stability dG” value is reported as 1.14 kcal/mol.
With H59S the “folding stability dG” value was 0.624 kcal/mol.
For H59A, the “folding stability dG” value was 0.525 kcal/mol.
For H59L, the “folding stability dG” value was 2.03 kcal/mol.
For H59E, the “folding stability dG” value was 1.21 kcal/mol.
With H59M the “folding stability dG” value was 1.92 kcal/mol.
In the case of H59N, the “folding stability dG” value is reported as 0.996 kcal/mol.
For K32V, the “folding stability dG” value was 0.251 kcal/mol.
With K32S the “folding stability dG” value was 0.171 kcal/mol.
In the case of K32T, the “folding stability dG” value is reported as 0.187 kcal/mol.
For K32R, the “folding stability dG” value was 1.18 kcal/mol.
For I58L, the “folding stability dG” value was 0.496 kcal/mol.
In the case of D30M, the “folding stability dG” value is reported as 1.66 kcal/mol.
With D30F the “folding stability dG” value was 0.817 kcal/mol.
In the case of D30R, the “folding stability dG” value is reported as 1.07 kcal/mol.
In the case of N25Y, the “folding stability dG” value is reported as 0.277 kcal/mol.
In the case of N25R, the “folding stability dG” value is reported as 1.59 kcal/mol.
For N25I, the “folding stability dG” value was 0.737 kcal/mol.
With N25M the “folding stability dG” value was 0.989 kcal/mol.
With L52N the “folding stability dG” value was 0.952 kcal/mol.
In the case of L52F, the “folding stability dG” value is reported as 0.588 kcal/mol.
With E67T the “folding stability dG” value was 1.38 kcal/mol.
With E67W the “folding stability dG” value was 0.996 kcal/mol.
With E67M the “folding stability dG” value was 0.866 kcal/mol.
With E67D the “folding stability dG” value was 0.551 kcal/mol.
With E67I the “folding stability dG” value was 1.07 kcal/mol.
In the case of E67Y, the “folding stability dG” value is reported as 0.933 kcal/mol.
For E67K, the “folding stability dG” value was 1.08 kcal/mol.
In the case of E67C, the “folding stability dG” value is reported as 1.33 kcal/mol.
In the case of E67A, the “folding stability dG” value is reported as 1.08 kcal/mol.
With F3N the “folding stability dG” value was 0.409 kcal/mol.
In the case of V44K, the “folding stability dG” value is reported as -0.664 kcal/mol.
In the case of V44R, the “folding stability dG” value is reported as -0.295 kcal/mol.
In the case of V44L, the “folding stability dG” value is reported as 1.37 kcal/mol.
With V44T the “folding stability dG” value was -0.308 kcal/mol.
With Q50V the “folding stability dG” value was 0.067 kcal/mol.
In the case of Q50W, the “folding stability dG” value is reported as 0.792 kcal/mol.
With Q50H the “folding stability dG” value was 0.479 kcal/mol.
For Q50L, the “folding stability dG” value was 1.55 kcal/mol.
With Q50N the “folding stability dG” value was -0.038 kcal/mol.
With K49I the “folding stability dG” value was 1.18 kcal/mol.
For K49V, the “folding stability dG” value was 0.867 kcal/mol.
With K49Y the “folding stability dG” value was 1.2 kcal/mol.
For K49M, the “folding stability dG” value was 1.19 kcal/mol.
For K49G, the “folding stability dG” value was 0.492 kcal/mol.
In the case of K49A, the “folding stability dG” value is reported as 1.29 kcal/mol.
For K49F, the “folding stability dG” value was 0.439 kcal/mol.
For K49S, the “folding stability dG” value was 0.881 kcal/mol.
With K49D the “folding stability dG” value was 0.75 kcal/mol.
In the case of A39Y, the “folding stability dG” value is reported as 0.83 kcal/mol.
In the case of A39P, the “folding stability dG” value is reported as 0.131 kcal/mol.
With A39D the “folding stability dG” value was 0.034 kcal/mol.
For A39E, the “folding stability dG” value was 0.246 kcal/mol.
In the case of A12D, the “folding stability dG” value is reported as 0.188 kcal/mol.
With A12R the “folding stability dG” value was 0.983 kcal/mol.
In the case of A12Q, the “folding stability dG” value is reported as 0.395 kcal/mol.
With A12G the “folding stability dG” value was 0.257 kcal/mol.
In the case of A12K, the “folding stability dG” value is reported as 1.07 kcal/mol.
In the case of A12Y, the “folding stability dG” value is reported as 0.632 kcal/mol.
In the case of D28F, the “folding stability dG” value is reported as 0.297 kcal/mol.
For D28L, the “folding stability dG” value was 0.945 kcal/mol.
With D28T the “folding stability dG” value was 1.48 kcal/mol.
With S45G the “folding stability dG” value was 0.349 kcal/mol.
In the case of S45V, the “folding stability dG” value is reported as 0.431 kcal/mol.
For S45A, the “folding stability dG” value was 1.09 kcal/mol.
For S45K, the “folding stability dG” value was 0.976 kcal/mol.
In the case of S45D, the “folding stability dG” value is reported as 0.937 kcal/mol.
With S45N the “folding stability dG” value was 1.05 kcal/mol.
For P15Q, the “folding stability dG” value was 0.122 kcal/mol.
In the case of P15E, the “folding stability dG” value is reported as 0.365 kcal/mol.
In the case of P15M, the “folding stability dG” value is reported as 0.07 kcal/mol.
In the case of P15S, the “folding stability dG” value is reported as 0.822 kcal/mol.
With P15K the “folding stability dG” value was 0.313 kcal/mol.
In the case of I31N, the “folding stability dG” value is reported as -0.499 kcal/mol.
For I31L, the “folding stability dG” value was -0.093 kcal/mol.
For I31C, the “folding stability dG” value was -0.874 kcal/mol.
For I31H, the “folding stability dG” value was -0.743 kcal/mol.
With E43D the “folding stability dG” value was 1.26 kcal/mol.
With E43Y the “folding stability dG” value was 1.2 kcal/mol.
In the case of E43H, the “folding stability dG” value is reported as 0.621 kcal/mol.
In the case of E43W, the “folding stability dG” value is reported as 1.26 kcal/mol.
With E43A the “folding stability dG” value was 0.759 kcal/mol.
For E43K, the “folding stability dG” value was 1.24 kcal/mol.
With E43S the “folding stability dG” value was 0.44 kcal/mol.
In the case of E43F, the “folding stability dG” value is reported as 1.07 kcal/mol.
In the case of A42Y, the “folding stability dG” value is reported as 0.635 kcal/mol.
In the case of A42N, the “folding stability dG” value is reported as 0.432 kcal/mol.
With A42Q the “folding stability dG” value was 0.718 kcal/mol.
In the case of A42I, the “folding stability dG” value is reported as 0.572 kcal/mol.
In the case of A42D, the “folding stability dG” value is reported as 0.989 kcal/mol.
With A42T the “folding stability dG” value was 0.44 kcal/mol.
In the case of A42P, the “folding stability dG” value is reported as 0.446 kcal/mol.
For H24C, the “folding stability dG” value was 1.86 kcal/mol.
In the case of H24M, the “folding stability dG” value is reported as 1.74 kcal/mol.
For H24T, the “folding stability dG” value was -0.497 kcal/mol.
With I20Y the “folding stability dG” value was -0.117 kcal/mol.
In the case of I20C, the “folding stability dG” value is reported as -0.061 kcal/mol.
With I20M the “folding stability dG” value was -0.166 kcal/mol.
In the case of K53A, the “folding stability dG” value is reported as 1.12 kcal/mol.
In the case of K53N, the “folding stability dG” value is reported as -0.015 kcal/mol.
For K53S, the “folding stability dG” value was 0.351 kcal/mol.
In the case of K53Q, the “folding stability dG” value is reported as 0.53 kcal/mol.
For K53D, the “folding stability dG” value was -0.039 kcal/mol.
In the case of K11L, the “folding stability dG” value is reported as 1.07 kcal/mol.
In the case of K11P, the “folding stability dG” value is reported as -0.825 kcal/mol.
With K11V the “folding stability dG” value was 0.083 kcal/mol.
In the case of K11M, the “folding stability dG” value is reported as 0.616 kcal/mol.
In the case of K11T, the “folding stability dG” value is reported as -0.058 kcal/mol.
In the case of K11I, the “folding stability dG” value is reported as 0.839 kcal/mol.
For N38C, the “folding stability dG” value was 0.923 kcal/mol.
With N38M the “folding stability dG” value was 0.449 kcal/mol.
With N38G the “folding stability dG” value was 1.55 kcal/mol.
For E57R, the “folding stability dG” value was -0.034 kcal/mol.
With E57L the “folding stability dG” value was 0.992 kcal/mol.
In the case of D41N, the “folding stability dG” value is reported as 0.532 kcal/mol.
In the case of D41C, the “folding stability dG” value is reported as 0.771 kcal/mol.
For D41S, the “folding stability dG” value was 1.03 kcal/mol.
In the case of E22Q, the “folding stability dG” value is reported as 1.44 kcal/mol.
In the case of E22F, the “folding stability dG” value is reported as 0.764 kcal/mol.
With E22A the “folding stability dG” value was 1.32 kcal/mol.
For E22T, the “folding stability dG” value was 1.26 kcal/mol.
With E22R the “folding stability dG” value was 1.57 kcal/mol.
With E22D the “folding stability dG” value was 0.198 kcal/mol.
In the case of T33C, the “folding stability dG” value is reported as 0.988 kcal/mol.
In the case of T33G, the “folding stability dG” value is reported as -0.016 kcal/mol.
In the case of T33Q, the “folding stability dG” value is reported as 1.02 kcal/mol.
With T33A the “folding stability dG” value was 1.14 kcal/mol.
In the case of T33R, the “folding stability dG” value is reported as 1.55 kcal/mol.
For K55C, the “folding stability dG” value was 2.15 kcal/mol.
With K55H the “folding stability dG” value was 1.27 kcal/mol.
For K55V, the “folding stability dG” value was 0.758 kcal/mol.
In the case of K55W, the “folding stability dG” value is reported as 2.94 kcal/mol.
In the case of K55G, the “folding stability dG” value is reported as 0.766 kcal/mol.
With R66V the “folding stability dG” value was 0.348 kcal/mol.
For R66Y, the “folding stability dG” value was 0.091 kcal/mol.
For R66W, the “folding stability dG” value was 0.163 kcal/mol.
With R66C the “folding stability dG” value was 0.384 kcal/mol.
In the case of R66M, the “folding stability dG” value is reported as 0.762 kcal/mol.
With R66L the “folding stability dG” value was 1.07 kcal/mol.
In the case of R66H, the “folding stability dG” value is reported as 1.53 kcal/mol.
For L10G, the “folding stability dG” value was -0.111 kcal/mol.
For L10Y, the “folding stability dG” value was -0.44 kcal/mol.
For L10W, the “folding stability dG” value was -0.69 kcal/mol.
In the case of L10I, the “folding stability dG” value is reported as 0.415 kcal/mol.
In the case of L10M, the “folding stability dG” value is reported as -0.173 kcal/mol.
With L10S the “folding stability dG” value was -0.995 kcal/mol.
For L10A, the “folding stability dG” value was -0.294 kcal/mol.
With Q26F the “folding stability dG” value was -0.21 kcal/mol.
With Q26M the “folding stability dG” value was -0.061 kcal/mol.
For Q26K, the “folding stability dG” value was 1.07 kcal/mol.
For Q26L, the “folding stability dG” value was 0.746 kcal/mol.
With Q26E the “folding stability dG” value was -0.511 kcal/mol.
In the case of Q26S, the “folding stability dG” value is reported as 0.329 kcal/mol.
In the case of K19D, the “folding stability dG” value is reported as 0.823 kcal/mol.
In the case of K19V, the “folding stability dG” value is reported as 0.316 kcal/mol.
In the case of K19W, the “folding stability dG” value is reported as 1.3 kcal/mol.
With K19T the “folding stability dG” value was 0.755 kcal/mol.
With S60D the “folding stability dG” value was 0.536 kcal/mol.
With S60I the “folding stability dG” value was 0.697 kcal/mol.
With S60M the “folding stability dG” value was 1.29 kcal/mol.
In the case of S60Y, the “folding stability dG” value is reported as 0.561 kcal/mol.
With A34H the “folding stability dG” value was -0.482 kcal/mol.
For A34I, the “folding stability dG” value was -0.296 kcal/mol.
For A34F, the “folding stability dG” value was 0.526 kcal/mol.
With A34Y the “folding stability dG” value was 0.389 kcal/mol.
